Measurements taken from the Human Domainome abundance scans (Beltran et al. 2025).

B1: Homeobox protein cut-like 1, residues 548 to 629; numbered along this chain, P39880 (parent)
chain: GEEMDTAEIARQVKEQLIKHNIGQRIFGHYVLGLSQGSVSEILARPKPWNKLTVRGKEPFHKMKQFLSDEQNILALRSIQGR

Variants of: B1
Assay: abundance fitness (aPCA) (normalised: wild type 0, dead -1); higher = more abundant; growth selection in yeast, the domain comes from the species named
Conditions: Homo sapiens

Abundance fitness, by site and new letter:
L34: Y -0.26 | C -0.047 | M 0.09 | G -0.461 | R -0.393 | W -0.264 | P -0.519 | D -0.274 | V -0.151 | N -0.362 | K -0.346 | F -0.167 | I -0.052 | S -0.349 | Q -0.173 | T -0.213 | A -0.228
Q36: V -0.025 | R -0.049 | D 0.056 | C -0.157 | M -0.104 | I -0.059 | A 0.021 | P 0.071 | L 0.008 | H -0.017 | E 0.055 | T -0.034 | K 0.025 | N -0.048 | Y -0.045 | W -0.039
H29: M -0.052 | L -0.1 | K 0.022 | T -0.022 | G -0.357 | D -0.036 | F -0.15 | Y -0.125 | W -0.102 | Q 0.038 | E 0.06 | R -0.051 | P -0.621 | N -0.012 | S -0.081
Y30: C -0.065 | T -0.147 | Q -0.099 | N -0.282 | H 0.014 | R -0.201 | P -0.742 | K -0.091 | E -0.034 | F -0.126 | G -0.552 | L -0.111 | V -0.053 | D -0.337 | W -0.184 | I -0.024 | M -0.122 | A -0.082
V31: M -0.431 | E -0.681 | T -0.488 | G -0.766 | H -0.988 | Q -0.882 | Y -0.2 | D -0.839 | S -0.806 | K -1.04 | L -0.391 | N -0.713 | W -0.133 | C -0.179 | R -0.947
G33: W -0.969 | A -0.341 | F -0.883 | D -0.268 | N -0.106 | H -0.111 | T -0.798 | R -0.351 | S -0.297 | Q -0.221 | V -0.895 | C -0.4 | I -1.15 | Y -1.16 | L -0.822 | K -0.217 | P -0.882 | E -0.312
G37: C -0.013 | I -0.17 | E 0.136 | H 0.006 | A 0.037 | F -0.075
S35: L -0.384 | V -0.236 | P 0.062 | F -0.126 | I -0.308 | R -0.209 | Y -0.298 | H -0.238 | N -0.081 | K -0.035 | M -0.278 | W -0.311 | D 0.154 | Q -0.029 | G -0.039 | A -0.112 | C -0.086
G28: R -0.52 | C -0.223 | K -0.745 | I -0.233 | E -0.188 | Y -0.374 | T -0.47 | N -0.259 | Q -0.457 | W -0.764 | A 0.018 | P -0.726 | V -0.452 | M -0.241 | S -0.05 | D -0.349 | H -0.485 | F -0.329
L32: K -0.986 | M -0.317 | R -0.943 | T -0.741 | I -0.562 | N -0.768 | A -0.732 | Y -1.01 | H -0.723 | Q -0.791 | P -0.894 | F -0.988 | S -0.793 | G -0.839 | E -0.792 | D -0.773 | V -0.41 | C -0.281
F27: Q -0.747 | T -0.914 | Y -1.15 | R -0.884 | S -0.906 | W -0.572 | V -0.815 | P -0.861 | N -0.787
